{"source": "paper PMC8267615", "key": {"[1]": {"target": "TREM-1 expressed on the monocyte cell membrane (human (endogenous in monocytes)) (UniProt Q9NP99)", "sequence (Q9NP99 21-234)": "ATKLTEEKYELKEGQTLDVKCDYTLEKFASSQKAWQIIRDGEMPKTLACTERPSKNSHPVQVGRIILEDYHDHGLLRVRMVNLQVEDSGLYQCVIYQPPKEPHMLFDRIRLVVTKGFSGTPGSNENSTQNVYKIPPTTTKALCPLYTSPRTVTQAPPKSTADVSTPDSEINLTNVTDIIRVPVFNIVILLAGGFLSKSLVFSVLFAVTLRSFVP"}, "[2]": {"target": "TREM-1 expressed on the monocyte cell membrane (human (endogenous in monocytes)) (UniProt Q9NP99)", "remark": "listed apart in the source"}}, "data": [{"substance": "recombinant human Hsp70 (major heat shock protein 70) (from UniProt P0DMV8 1-641) (natural protein)", "values": [{"measurement": "cytotoxicity against target cells of lymphocytes activated in PBMCs by six-day treatment with rising Hsp70 concentration (half maximal effective concentration)", "setting": "[1]", "value": 0.5, "unit": "nM"}, {"measurement": "inhibition of the cytotoxicity of Hsp70-activated lymphocytes by the TREM-1 inhibitor peptide LP17 (…), against LP17 concentration; not completely suppressed at higher concentration", "setting": "[1]", "value": 0.01, "unit": "nM"}, {"measurement": "cytotoxic activity of NK cells isolated on days four and six from PBMCs incubated with Hsp70 with or without the TREM-1 inhibitor LP17 (no difference on day six)", "setting": "[2]", "value": 40, "unit": "%"}]}]}
